1 substance from US20060199247A1 can be followed below.

The target in the test is beef heart phosphodiesterase (Boeringer Mannheim) (beef).

As for calmodulin, the phosphodiesterase activity amounted to 6.5 fold.
